The data set deals with the molecule itself. The data set can be described thus: SEC + SEC-MALS.

The values below come from paper PMC2997670 (The Biochemical journal, 2010).

B1: ECM4 (extracellular mutant 4) of Saccharomyces cerevisiae (enzyme, S. cerevisiae, UniProt P36156 1-370, looked up)
chain: MSKQWASGTNGAFKRQVSSFRETISKQHPIYKPAKGRYWLYVSLACPWAHRTLITRALKGLTSVIGCSVVHWHLDEKGWRFLDMEKQLEDSEDFLEHWHDVAGGIRTAKEDSSKSFAEIKNDSQRFMVDATNEPHYGYKRISDLYYKSDPQYSARFTVPVLWDLETQTIVNNESSEIIRILNSSAFDEFVDDDHKKTDLVPAQLKTQIDDFNSWVYDSINNGVYKTGFAEKAEVYESEVNNVFEHLDKVEKILSDKYSKLKAKYGEEDRQKILGEFFTVGDQLTEADIRLYTTVIRFDPVYVQHFKCNFTSIRAGYPFIHLWVRNLYWNYDAFRYTTDFDHIKLHYTRSHTRINPLGITPLGPKPDIRPL
Broadly, the stoichiometry N is the number of molecules, sites or subunits per partner or assembly. Take B1: the “stoichiometry N” value came to 2.

B2: PcpF, S-glutathionyl-(chloro)hydroquinone reductase of Sphingobium chlorophenolicum ATCC 39723 (enzyme, UniProt Q8KN33 1-313, looked up)
chain: MGLLIDGVWRDAWYDTKSSGGRFVRKESQYRGGLDAGFRGEPGRYHLYAGFACPWAHRVLIMRALKGLEEMISVSMVNAYMGENGWTFLPGDDVVPDSINGADYLYQVYTAADPTYTGRVTIPILWDKVEKRILNNESSEIIRILNSAFDDVGALPGDYYPAEFRPEIDRINARVYETLNNGVYRSGFATTQEAYEEAFYPLFDTLDWLEEHLTGREWLVGDRLTEADIRLFPTLVRFDAIYHGHFKCNLRRIADYPNLSRLVGKLASHERVAPTINLRHAKAHYYGSHPSVNPTGIVPVGPAQPLPGLTLQS
As for B2, the “stoichiometry N” value came to 2.
